Experimental data published in article PMC9482650, “Quantitative fragmentomics allow affinity mapping of interactomes” (Nature Communications, 2022).

The binders below were run against PTPN3, P26045 (assay: holdup assay). Settings: plain residues with an end cap or a label only (N-terminal biotin on a linker: ado-ado).
Design: key: below the threshold = too weak to quantify, mostly under pKd 3.1 to 4

Chain of PTPN3, P26045 (P26045 505-587): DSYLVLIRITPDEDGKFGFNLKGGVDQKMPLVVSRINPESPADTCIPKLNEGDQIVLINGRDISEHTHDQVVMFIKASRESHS

| Binder | pKd |
| --- | --- |
| VKPQVSESKL [ACOT8, O14734] | 4.63 |

Each binder was assayed against T1, APBA3_1, O96018 (assay: holdup assay). Settings: plain residues with an end cap or a label only (N-terminal biotin on a linker: ado-ado).
T1 sequence (O96018 389-490, limits assumed, looked up): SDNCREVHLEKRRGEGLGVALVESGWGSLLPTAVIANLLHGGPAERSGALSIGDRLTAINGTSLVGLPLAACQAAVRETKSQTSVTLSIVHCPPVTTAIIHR
Design: key: below the threshold = too weak to quantify, mostly under pKd 3.1 to 4

| Binder | pKd |
| --- | --- |
| VKPQVSESKL [ACOT8, O14734] | below the threshold |

These binders were tested against PARD3_3, Q8TEW0 (assay: holdup assay). Settings: plain residues with an end cap or a label only (N-terminal biotin on a linker: ado-ado).
Chain of PARD3_3, Q8TEW0 (Q8TEW0 582-685): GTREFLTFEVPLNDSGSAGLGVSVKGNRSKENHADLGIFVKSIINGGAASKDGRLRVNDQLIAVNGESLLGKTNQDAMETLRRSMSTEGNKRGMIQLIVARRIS
Design: key: below the threshold = too weak to quantify, mostly under pKd 3.1 to 4

| Binder | pKd |
| --- | --- |
| VKPQVSESKL [ACOT8, O14734] | below the threshold |

What follows are binders tested against PDLIM1, O00151 (assay: holdup assay). Settings: plain residues with an end cap or a label only (N-terminal biotin on a linker: ado-ado).
Chain of PDLIM1, O00151 (O00151 1-87): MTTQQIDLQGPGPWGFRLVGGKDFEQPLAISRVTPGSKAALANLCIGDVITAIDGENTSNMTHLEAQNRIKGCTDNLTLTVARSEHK
Design: key: below the threshold = too weak to quantify, mostly under pKd 3.1 to 4

| Binder | pKd |
| --- | --- |
| VKPQVSESKL [ACOT8, O14734] | below the threshold |

These binders were tested against T2, LRRC7, Q96NW7 (assay: holdup assay). Settings: plain residues with an end cap or a label only (N-terminal biotin on a linker: ado-ado).
T2 sequence (Q96NW7 1440-1537, limits assumed, looked up): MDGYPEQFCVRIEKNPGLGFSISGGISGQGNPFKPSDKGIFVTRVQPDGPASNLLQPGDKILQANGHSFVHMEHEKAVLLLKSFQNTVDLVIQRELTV
Design: key: below the threshold = too weak to quantify, mostly under pKd 3.1 to 4

| Binder | pKd |
| --- | --- |
| VKPQVSESKL [ACOT8, O14734] | below the threshold |

Each binder was assayed against MAGI2_4, Q86UL8 (assay: holdup assay). Settings: plain residues with an end cap or a label only (N-terminal biotin on a linker: ado-ado).
Chain of MAGI2_4, Q86UL8 (Q86UL8 772-865): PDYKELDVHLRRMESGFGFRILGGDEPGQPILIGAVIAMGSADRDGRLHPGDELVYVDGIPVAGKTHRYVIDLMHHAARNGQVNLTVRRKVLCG
Design: key: below the threshold = too weak to quantify, mostly under pKd 3.1 to 4

| Binder | pKd |
| --- | --- |
| VKPQVSESKL [ACOT8, O14734] | below the threshold |

What follows are binders tested against LDB3, O75112 (assay: holdup assay). Settings: plain residues with an end cap or a label only (N-terminal biotin on a linker: ado-ado).
Chain of LDB3, O75112 (O75112 1-94): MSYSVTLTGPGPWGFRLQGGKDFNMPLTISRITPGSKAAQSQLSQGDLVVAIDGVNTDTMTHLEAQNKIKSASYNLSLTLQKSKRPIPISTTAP
Design: key: below the threshold = too weak to quantify, mostly under pKd 3.1 to 4

| Binder | pKd |
| --- | --- |
| VKPQVSESKL [ACOT8, O14734] | 3.6 |

Each binder was assayed against NHERF4_2, Q86UT5 (assay: holdup assay). Settings: plain residues with an end cap or a label only (N-terminal biotin on a linker: ado-ado).
Chain of NHERF4_2, Q86UT5 (Q86UT5 220-308): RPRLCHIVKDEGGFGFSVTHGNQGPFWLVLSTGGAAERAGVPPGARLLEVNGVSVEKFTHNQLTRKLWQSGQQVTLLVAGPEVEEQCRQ
Design: key: below the threshold = too weak to quantify, mostly under pKd 3.1 to 4

| Binder | pKd |
| --- | --- |
| VKPQVSESKL [ACOT8, O14734] | below the threshold |

Each binder was assayed against T3, TJP3_3, O95049 (assay: holdup assay). Settings: plain residues with an end cap or a label only (N-terminal biotin on a linker: ado-ado).
T3 sequence (O95049 375-456, limits assumed, looked up): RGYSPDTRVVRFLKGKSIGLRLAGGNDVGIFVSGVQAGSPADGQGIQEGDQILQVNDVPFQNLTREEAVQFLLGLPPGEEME
Design: key: below the threshold = too weak to quantify, mostly under pKd 3.1 to 4

| Binder | pKd |
| --- | --- |
| VKPQVSESKL [ACOT8, O14734] | below the threshold |

Each binder was assayed against AHNAK1, Q09666 (assay: holdup assay). Settings: plain residues with an end cap or a label only (N-terminal biotin on a linker: ado-ado).
Chain of AHNAK1, Q09666 (Q09666 4-100): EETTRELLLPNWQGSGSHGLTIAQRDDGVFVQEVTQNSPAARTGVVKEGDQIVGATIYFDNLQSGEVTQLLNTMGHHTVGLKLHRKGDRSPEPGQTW
Design: key: below the threshold = too weak to quantify, mostly under pKd 3.1 to 4

| Binder | pKd |
| --- | --- |
| VKPQVSESKL [ACOT8, O14734] | below the threshold |

What follows are binders tested against Inadl_4, Q8NI35 (assay: holdup assay). Settings: plain residues with an end cap or a label only (N-terminal biotin on a linker: ado-ado).
Chain of Inadl_4, Q8NI35 (Q8NI35 547-651): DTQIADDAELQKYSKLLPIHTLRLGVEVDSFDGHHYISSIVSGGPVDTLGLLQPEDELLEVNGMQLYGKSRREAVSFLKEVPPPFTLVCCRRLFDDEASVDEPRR
Design: key: below the threshold = too weak to quantify, mostly under pKd 3.1 to 4

| Binder | pKd |
| --- | --- |
| VKPQVSESKL [ACOT8, O14734] | below the threshold |

The binders below were run against T4, DLG3_3, Q92796 (assay: holdup assay). Settings: plain residues with an end cap or a label only (N-terminal biotin on a linker: ado-ado).
T4 sequence (Q92796 374-475, limits assumed, looked up): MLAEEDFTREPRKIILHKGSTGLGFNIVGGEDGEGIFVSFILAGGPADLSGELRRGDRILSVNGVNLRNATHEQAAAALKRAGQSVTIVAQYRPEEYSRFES
Design: key: below the threshold = too weak to quantify, mostly under pKd 3.1 to 4

| Binder | pKd |
| --- | --- |
| VKPQVSESKL [ACOT8, O14734] | below the threshold |

What follows are binders tested against T5, LNX2_3, Q8N448 (assay: holdup assay). Settings: plain residues with an end cap or a label only (N-terminal biotin on a linker: ado-ado).
T5 sequence (Q8N448 463-564, limits assumed, looked up): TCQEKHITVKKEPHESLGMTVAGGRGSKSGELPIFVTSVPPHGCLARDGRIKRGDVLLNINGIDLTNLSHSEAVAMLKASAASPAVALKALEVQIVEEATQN
Design: key: below the threshold = too weak to quantify, mostly under pKd 3.1 to 4

| Binder | pKd |
| --- | --- |
| VKPQVSESKL [ACOT8, O14734] | below the threshold |

Each binder was assayed against Inadl_2, Q8NI35 (assay: holdup assay). Settings: plain residues with an end cap or a label only (N-terminal biotin on a linker: ado-ado).
Chain of Inadl_2, Q8NI35 (Q8NI35 238-335): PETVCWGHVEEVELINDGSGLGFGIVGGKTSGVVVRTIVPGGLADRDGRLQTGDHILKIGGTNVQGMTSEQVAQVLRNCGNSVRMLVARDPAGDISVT
Design: key: below the threshold = too weak to quantify, mostly under pKd 3.1 to 4

| Binder | pKd |
| --- | --- |
| VKPQVSESKL [ACOT8, O14734] | below the threshold |

What follows are binders tested against NHERF4_1, Q86UT5-2 (assay: holdup assay). Settings: plain residues with an end cap or a label only (N-terminal biotin on a linker: ado-ado).
Chain of NHERF4_1, Q86UT5-2 (Q86UT5 other isoform, or with tags, fused parts or gaps): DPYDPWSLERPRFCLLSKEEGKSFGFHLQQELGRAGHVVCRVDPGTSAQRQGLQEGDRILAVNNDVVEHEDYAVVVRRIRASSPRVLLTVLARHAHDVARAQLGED
Design: key: below the threshold = too weak to quantify, mostly under pKd 3.1 to 4

| Binder | pKd |
| --- | --- |
| VKPQVSESKL [ACOT8, O14734] | 3.78 |

Each binder was assayed against MAGI3_2, Q5TCQ9 (assay: holdup assay). Settings: plain residues with an end cap or a label only (N-terminal biotin on a linker: ado-ado).
Chain of MAGI3_2, Q5TCQ9 (Q5TCQ9 398-503): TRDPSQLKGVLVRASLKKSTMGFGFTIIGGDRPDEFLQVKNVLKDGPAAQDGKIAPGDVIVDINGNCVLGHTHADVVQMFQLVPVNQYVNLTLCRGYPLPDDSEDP
Design: key: below the threshold = too weak to quantify, mostly under pKd 3.1 to 4

| Binder | pKd |
| --- | --- |
| VKPQVSESKL [ACOT8, O14734] | 3.59 |

What follows are binders tested against GRID2IP_1, A4D2P6 (assay: holdup assay). Settings: plain residues with an end cap or a label only (N-terminal biotin on a linker: ado-ado).
Chain of GRID2IP_1, A4D2P6 (A4D2P6 1-87): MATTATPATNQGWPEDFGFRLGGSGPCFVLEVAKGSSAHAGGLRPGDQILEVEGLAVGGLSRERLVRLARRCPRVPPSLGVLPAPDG
Design: key: below the threshold = too weak to quantify, mostly under pKd 3.1 to 4

| Binder | pKd |
| --- | --- |
| VKPQVSESKL [ACOT8, O14734] | below the threshold |

Each binder was assayed against DLG2_2, Q15700 (assay: holdup assay). Settings: plain residues with an end cap or a label only (N-terminal biotin on a linker: ado-ado).
Chain of DLG2_2, Q15700 (Q15700 189-283): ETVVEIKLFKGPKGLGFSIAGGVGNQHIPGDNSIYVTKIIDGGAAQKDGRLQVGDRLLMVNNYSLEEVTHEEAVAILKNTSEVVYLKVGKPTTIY
Design: key: below the threshold = too weak to quantify, mostly under pKd 3.1 to 4

| Binder | pKd |
| --- | --- |
| VKPQVSESKL [ACOT8, O14734] | below the threshold |

What follows are binders tested against T6, ARHGAP21, Q5T5U3 (assay: holdup assay). Settings: plain residues with an end cap or a label only (N-terminal biotin on a linker: ado-ado).
T6 sequence (Q5T5U3 45-169, limits assumed, looked up): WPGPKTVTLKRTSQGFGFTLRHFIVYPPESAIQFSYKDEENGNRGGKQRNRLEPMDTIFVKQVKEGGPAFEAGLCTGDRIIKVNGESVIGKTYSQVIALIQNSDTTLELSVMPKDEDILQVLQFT
Design: key: below the threshold = too weak to quantify, mostly under pKd 3.1 to 4

| Binder | pKd |
| --- | --- |
| VKPQVSESKL [ACOT8, O14734] | below the threshold |

The binders below were run against T7, FRMPD1, Q5SYB0 (assay: holdup assay). Settings: plain residues with an end cap or a label only (N-terminal biotin on a linker: ado-ado).
T7 sequence (Q5SYB0 52-145, limits assumed, looked up): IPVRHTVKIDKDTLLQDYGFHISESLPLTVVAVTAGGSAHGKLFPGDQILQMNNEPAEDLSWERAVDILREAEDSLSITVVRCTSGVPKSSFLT
Design: key: below the threshold = too weak to quantify, mostly under pKd 3.1 to 4

| Binder | pKd |
| --- | --- |
| VKPQVSESKL [ACOT8, O14734] | below the threshold |

These binders were tested against T8, LIN7C, Q9NUP9 (assay: holdup assay). Settings: plain residues with an end cap or a label only (N-terminal biotin on a linker: ado-ado).
T8 sequence (Q9NUP9 88-185, limits assumed, looked up): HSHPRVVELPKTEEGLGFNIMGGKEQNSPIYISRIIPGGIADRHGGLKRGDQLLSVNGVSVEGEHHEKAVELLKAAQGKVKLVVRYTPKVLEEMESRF
Design: key: below the threshold = too weak to quantify, mostly under pKd 3.1 to 4

| Binder | pKd |
| --- | --- |
| VKPQVSESKL [ACOT8, O14734] | below the threshold |

These binders were tested against T9, APBA1_1, Q02410 (assay: holdup assay). Settings: plain residues with an end cap or a label only (N-terminal biotin on a linker: ado-ado).
T9 sequence (Q02410 651-752, limits assumed, looked up): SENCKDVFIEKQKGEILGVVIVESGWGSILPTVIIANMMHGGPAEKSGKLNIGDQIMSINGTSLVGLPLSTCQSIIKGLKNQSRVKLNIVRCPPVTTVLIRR
Design: key: below the threshold = too weak to quantify, mostly under pKd 3.1 to 4

| Binder | pKd |
| --- | --- |
| VKPQVSESKL [ACOT8, O14734] | below the threshold |

The binders below were run against MAGI2_3, Q86UL8 (assay: holdup assay). Settings: plain residues with an end cap or a label only (N-terminal biotin on a linker: ado-ado).
Chain of MAGI2_3, Q86UL8 (Q86UL8 600-682): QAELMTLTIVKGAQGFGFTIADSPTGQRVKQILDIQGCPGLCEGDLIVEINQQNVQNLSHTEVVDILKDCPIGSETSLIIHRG
Design: key: below the threshold = too weak to quantify, mostly under pKd 3.1 to 4

| Binder | pKd |
| --- | --- |
| VKPQVSESKL [ACOT8, O14734] | below the threshold |

What follows are binders tested against T10, SHANK1, Q9Y566 (assay: holdup assay). Settings: plain residues with an end cap or a label only (N-terminal biotin on a linker: ado-ado).
T10 sequence (Q9Y566 658-767, limits assumed, looked up): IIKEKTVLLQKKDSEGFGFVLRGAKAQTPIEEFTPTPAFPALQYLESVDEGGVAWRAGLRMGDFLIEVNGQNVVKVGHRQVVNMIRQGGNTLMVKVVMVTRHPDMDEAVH
Design: key: below the threshold = too weak to quantify, mostly under pKd 3.1 to 4

| Binder | pKd |
| --- | --- |
| VKPQVSESKL [ACOT8, O14734] | 4.01 |

The binders below were run against T11, RAPGEF6, Q8TEU7 (assay: holdup assay). Settings: plain residues with an end cap or a label only (N-terminal biotin on a linker: ado-ado).
T11 sequence (Q8TEU7 525-625, limits assumed, looked up): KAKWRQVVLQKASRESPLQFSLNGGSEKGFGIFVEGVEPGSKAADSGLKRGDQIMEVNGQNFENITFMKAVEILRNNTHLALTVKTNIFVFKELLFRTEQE
Design: key: below the threshold = too weak to quantify, mostly under pKd 3.1 to 4

| Binder | pKd |
| --- | --- |
| VKPQVSESKL [ACOT8, O14734] | below the threshold |

These binders were tested against Inadl_8, Q8NI35 (assay: holdup assay). Settings: plain residues with an end cap or a label only (N-terminal biotin on a linker: ado-ado).
Chain of Inadl_8, Q8NI35 (Q8NI35 1425-1530): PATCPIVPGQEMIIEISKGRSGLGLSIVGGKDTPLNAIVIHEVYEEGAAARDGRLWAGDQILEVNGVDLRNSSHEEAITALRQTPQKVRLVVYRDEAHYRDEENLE
Design: key: below the threshold = too weak to quantify, mostly under pKd 3.1 to 4

| Binder | pKd |
| --- | --- |
| VKPQVSESKL [ACOT8, O14734] | below the threshold |

What follows are binders tested against FRMPD2_1, Q68DX3 (assay: holdup assay). Settings: plain residues with an end cap or a label only (N-terminal biotin on a linker: ado-ado).
Chain of FRMPD2_1, Q68DX3 (Q68DX3 770-861): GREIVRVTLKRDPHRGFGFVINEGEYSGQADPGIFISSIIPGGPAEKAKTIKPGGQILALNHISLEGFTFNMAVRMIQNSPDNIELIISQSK
Design: key: below the threshold = too weak to quantify, mostly under pKd 3.1 to 4

| Binder | pKd |
| --- | --- |
| VKPQVSESKL [ACOT8, O14734] | below the threshold |
